Assay results: patent US20240294635A1 (CHIA TAI TIANQING PHARMACEUTICAL GROUP, published 2024)
Positions count from the first letter of the chain named.

B1: hz3F10-3.1 (antibody, human IgG4 S228P, kappa, V domains shown)
VH: QVQLVQSGAEVKKPGSSVKVSCKASGYTFSRYWIEWVRQAPGQGLEWMGEFIPGSDTTNYAQKFQGRVTITADISTSTAYMELSSLRSEDTAVYYCARGGLRRMDYWGQGTLVTVSS
VL: DIQMTQSPSSLSASVGDRVTITCRASSSVSSTYLHWYQQKPGKAPKLLIYTTSTLASGVPSRFSGSGSGTSYTLTISSLQPEDFATYYCQQFSDSTWTFGQGTKLEIKR
notes: humanized 3F10, full-length heavy and light chains
B2: hz3F10-2.1 (antibody, human IgG4 S228P, kappa, V domains shown)
VH: B1 VH
VL: B1 VL with S71D, Y72F, D94E
notes: as for B1
B3: hz3F10-1.2 (antibody, human IgG4 S228P, kappa, V domains shown)
VH: B1 VH with D73E, S77N
VL: B1 VL with S71D, Y72F
notes: as for B1
B4: hz3F10-5.2 (antibody, human IgG4 S228P, kappa, V domains shown)
VH: B1 VH with D73E, S77N
VL: B1 VL with L48W
notes: as for B1
B5: hz3F10-1.1 (antibody, human IgG4 S228P, kappa, V domains shown)
VH: B1 VH
VL: B1 VL with S71D, Y72F
notes: as for B1
B6: hz3F10-3.2 (antibody, human IgG4 S228P, kappa, V domains shown)
VH: B1 VH with D73E, S77N
VL: B1 VL
notes: as for B1
B7: hz3F10-2.2 (antibody, human IgG4 S228P, kappa, V domains shown)
VH: B1 VH with D73E, S77N
VL: B1 VL with S71D, Y72F, D94E
notes: as for B1
B8: hz3F10-5.1 (antibody, human IgG4 S228P, kappa, V domains shown)
VH: B1 VH
VL: B1 VL with L48W
notes: as for B1
B9: hz3F10-4.1 (antibody, human IgG4 S228P, kappa, V domains shown)
VH: B1 VH
VL: B1 VL with D94E
notes: as for B1
B10: hz3F10-6.1 (antibody, human IgG4 S228P, kappa, V domains shown)
VH: B1 VH
VL: B1 VL with L48W, D94E
notes: as for B1
B11: hz3F10-6.2 (antibody, human IgG4 S228P, kappa, V domains shown)
VH: B1 VH with D73E, S77N
VL: B1 VL with L48W, D94E
notes: as for B1
B12: hz14A9-2.3 (antibody, human IgG4 S228P, kappa, V domains shown)
VH: QVQLVQSGAEVKKPGASVKVSCKVSGFNIEDDYIEWVRQAPGQGLEWMGRIDPANDKTKYAQKFQGRVTMTGDTSTNTVYMELSSLRSEDTAVYYCARPGLRRYYSMDYWGQGTLVTVSS
VL: DIQMTQSPSSLSASVGDRVTITCKASENVVSYVSWYQQKPGKAPKLLIYGASNRYTGVPSRFIGSGSSTDFTLTISSLQPEDFATYYCGQSYSYPLTFGQGTKLEIKR
notes: humanized 14A9, full-length heavy and light chains
B13: hz14A9-2.4 (antibody, human IgG4 S228P, kappa, V domains shown)
VH: B12 VH with A97T
VL: B12 VL
notes: as for B12
B14: hz16E5-1.2 (antibody, human IgG4 S228P, kappa)
heavy: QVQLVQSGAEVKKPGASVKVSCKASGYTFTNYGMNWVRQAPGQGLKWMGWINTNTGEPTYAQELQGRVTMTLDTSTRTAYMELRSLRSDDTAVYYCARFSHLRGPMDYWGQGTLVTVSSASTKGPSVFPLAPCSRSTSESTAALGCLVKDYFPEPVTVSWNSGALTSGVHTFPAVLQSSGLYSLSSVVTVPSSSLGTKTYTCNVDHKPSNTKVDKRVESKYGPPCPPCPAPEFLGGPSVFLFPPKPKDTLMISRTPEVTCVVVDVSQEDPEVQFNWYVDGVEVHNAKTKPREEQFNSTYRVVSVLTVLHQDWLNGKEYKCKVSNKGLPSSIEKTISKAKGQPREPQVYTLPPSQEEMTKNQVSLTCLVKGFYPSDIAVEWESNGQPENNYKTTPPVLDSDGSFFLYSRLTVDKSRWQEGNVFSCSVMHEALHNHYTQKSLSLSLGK
light: DIQMTQSPSSLSASVGDRVTITCRSSQSLVHSNGYTYLHWYQQKPGKAPKLLIYKVSNRFSGVPSRFSGSGSGTDFTLTISSLQPEDFATYYCSQSTHVPPTFGQGTKLEIKRTVAAPSVFIFPPSDEQLKSGTASVVCLLNNFYPREAKVQWKVDNALQSGNSQESVTEQDSKDSTYSLSSTLTLSKADYEKHKVYACEVTHQGLSSPVTKSFNRGEC
notes: humanized 16E5, full-length heavy and light chains
B15: hz16E5-3.2 (antibody, human IgG4 S228P, kappa)
heavy: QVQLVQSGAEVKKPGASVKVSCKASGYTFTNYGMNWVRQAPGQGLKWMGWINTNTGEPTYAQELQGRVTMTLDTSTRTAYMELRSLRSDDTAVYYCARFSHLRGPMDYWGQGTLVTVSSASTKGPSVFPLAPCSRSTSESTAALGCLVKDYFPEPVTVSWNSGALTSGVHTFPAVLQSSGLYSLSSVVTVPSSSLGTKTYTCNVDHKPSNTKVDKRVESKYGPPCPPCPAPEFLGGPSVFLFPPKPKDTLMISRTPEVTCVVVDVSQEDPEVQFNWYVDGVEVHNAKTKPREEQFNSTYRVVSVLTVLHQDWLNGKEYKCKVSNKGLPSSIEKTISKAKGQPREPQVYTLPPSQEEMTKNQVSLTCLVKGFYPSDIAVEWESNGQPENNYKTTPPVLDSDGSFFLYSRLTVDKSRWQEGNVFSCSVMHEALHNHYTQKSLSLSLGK
light: B14 light with I2A
notes: as for B14
B16: hz16E5-1.1 (antibody, human IgG4 S228P, kappa)
heavy: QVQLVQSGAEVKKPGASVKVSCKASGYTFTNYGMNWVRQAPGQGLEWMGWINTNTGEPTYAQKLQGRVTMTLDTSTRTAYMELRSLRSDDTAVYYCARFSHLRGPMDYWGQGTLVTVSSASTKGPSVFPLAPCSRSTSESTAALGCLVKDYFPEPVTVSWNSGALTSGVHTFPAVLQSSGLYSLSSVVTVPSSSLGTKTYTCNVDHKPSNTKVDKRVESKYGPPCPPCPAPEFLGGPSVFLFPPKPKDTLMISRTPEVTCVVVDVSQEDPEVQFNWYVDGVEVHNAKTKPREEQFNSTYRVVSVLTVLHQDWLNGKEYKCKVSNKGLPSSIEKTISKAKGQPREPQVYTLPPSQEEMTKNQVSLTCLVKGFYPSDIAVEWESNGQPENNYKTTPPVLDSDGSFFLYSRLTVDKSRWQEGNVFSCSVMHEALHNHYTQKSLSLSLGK
light: B14 light
notes: as for B14

Each binder was assayed against T1, CD47 on the red cell surface (Homo sapiens (Human), UniProt Q08722 19-323) (assay: flow cytometry on fixed red cells, antibody 1 µg/mL).
Procedure: (§1) Anticoagulated blood was collected and well mixed with an equal amount of normal saline. The mixture was centrifuged at 2000 rpm/min for 5 min, and the supernatant was removed. […] In the first two washings, the mixture was centrifuged at 2000 rpm/min for 5 min, and in the last washing, the mixture was centrifuged at 2000 rpm/min for 10 min, and the supernatant was removed.

MFI [MFI] | Binder
6700 | B1
8450 | B2
6250 | B3
5130 | B4
4450 | B5
5100 | B6
5610 | B7
7400 | B8
5980 | B9
7580 | B10
3440 | B11
2510 | B12
5240 | B13
913 | B14
860 | B15
945 | B16

What follows are binders tested against T2, human CD47 protein, His Tag (ACRObiosystems, Cat. No. CD7-H5227) (human, UniProt Q08722 19-139) (assay: ELISA, CD47-His coated, competition with Human-SIRPα-mFc).
T2 construct: bought reagent; also called CD47-His; hCD47-His Tag; not shown: His tag

IC50 [µg/mL] | Binder
1.68 | B1
1.61 | B2
1.69 | B3
1.82 | B4
1.53 | B5
1.74 | B6
1.73 | B7
1.7 | B8
1.95 | B9
1.77 | B10
1.84 | B11
0.703 | B12
0.621 | B13
2.94 | B14
2.05 | B15

What follows are binders tested against CD47 on HL60 cells (UniProt Q08722 19-323, limits assumed) (assay: cell-based or functional assay).

rate of phagocytosis, antibody 1 µg/mL [%] | rate of phagocytosis, antibody 10 µg/mL [%] | Binder
50.6 | 58.7 | B1
47.2 | 55.2 | B2
55.5 | 38.9 | B3
47.1 | 29.6 | B4
41.2 | 43.1 | B5
47 | 37.1 | B6
44.2 | 34.7 | B7
50.5 | 58.5 | B8
50.3 | 58.3 | B9
47.6 | 60.9 | B10
49.3 | 44.2 | B11
71.5 | 74.9 | B12
81.7 | 81.7 | B13
5.1 | 17.8 | B14
3.02 | 2.03 | B15
14.8 | 4.02 | B16

Each binder was assayed against T1, CD47 on the red cell surface (assay: flow cytometry on fixed red cells, antibody 10 µg/mL).
Procedure: as §1

MFI [MFI] | Binder
41400 | B1
53200 | B2
56700 | B3
53300 | B4
50500 | B5
45300 | B6
56100 | B7
50600 | B8
41900 | B9
53000 | B10
55900 | B11
11000 | B12
15000 | B13
4730 | B14
4200 | B15
6460 | B16

What follows are binders tested against T3, cynomolgus/rhesus macaque CD47 protein, His Tag (ACRObiosystems, Cat. No. CD7-C52H1) (cynomolgus monkey (cynomolgus/rhesus …, UniProt A0A2K5X523 19-141)) (assay: Biacore SPR, 25 C, antibody captured on CM5 chip).
T3 construct: bought reagent; also called Cynomolgus monkey CD47 protein
T3 sequence (A0A2K5X523 entry or part of it limits assumed): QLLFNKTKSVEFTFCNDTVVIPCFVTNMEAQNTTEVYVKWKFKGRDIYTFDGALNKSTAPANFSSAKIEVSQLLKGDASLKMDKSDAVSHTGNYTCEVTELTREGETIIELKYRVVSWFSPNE

Kd [nM] | Binder
1.17 | B2
1.33 | B3
1.4 | B4
1.31 | B5
1.47 | B6
1.14 | B7
1.3 | B8
1.62 | B9
2.47 | B10
1.15 | B11
3.07 | B12
2 | B13
2.26 | B14
3.1 | B15
4.77 | B16

What follows are binders tested against T2, human CD47 protein, His Tag … (assay: Biacore SPR, 25 C, antibody captured on CM5 chip).

Kd [nM] | Binder
1.53 | B1
0.836 | B2
0.904 | B3
0.896 | B4
0.946 | B5
1.15 | B6
0.779 | B7
0.96 | B8
1.42 | B9
0.592 | B10
0.765 | B11
0.204 | B12
8.55 | B13
9.31 | B14
17.1 | B15
18.9 | B16

What follows are binders tested against T4, human CD47 protein on CHO-K1-CD47 cells (human, UniProt Q08722 19-323) (assay: cell binding, CHO-K1-CD47 cells, high content imaging).
T4 construct: whole, on cells; also called CHO-K1 cells expressing human CD47 protein
Procedure: A cell binding assay of anti-CD47 antibodies (chimeric or humanized) was performed based on the binding to a CHO-K1 cell line stably expressing CD47. CHO-K1-CD47 cells (CHO-K1 cells expressing human CD47 protein) were added to each well of a 96-well plate (Eppendorf, Cat. No. C030730.119) at 1.2×10⁴ cells per well and incubated with anti-CD47 antibodies (20 μg/mL, 1:4 dilution in PBS) at room temperature for 1-2 h. […] The cells were incubated at room temperature for 30 min. The cells were washed three times with PBS buffer. A nuclear dye Hoechst (Sigma, Cat. No. B2261) was diluted with PBS buffer at a dilution ratio of 1:500 and then added to each well at 100 μL/well for staining for 10 min. The cells were washed 3 times with PBS and analyzed using a high content screening system (manufacturer: PerkinElmer; model: Operetta).

EC50 [µg/mL] | Binder
1.12 | B1
1.07 | B2
1.27 | B3
1.26 | B4
0.876 | B5
1.2 | B6
1.12 | B7
1.48 | B8
1.16 | B9
1.18 | B10
1.49 | B11
0.499 | B12
0.471 | B13
3.87 | B16

These binders were tested against T2, human CD47 protein, His Tag … (assay: ELISA, plate coated with CD47-His).
Procedure: An ELISA binding assay was performed based on human CD47 protein and anti-CD47 chimeric antibodies or anti-CD47 humanized antibodies. […] The wells were aspirated, and non-specific binding sites were blocked by adding 100 L/well of a blocking solution (PBS with 1% (w/v) bovine serum albumin (BSA, Sigma, Cat. No. B2064-100G)) and incubating the plate at 37° C. for 1 h. After the 96-well plate was washed three times with a washing buffer (PBS with 0.01% (w/v) Tween 20 (Sigma, Cat. No. P9416-100ML)), 100 μL/well of 1:4 serial dilutions (from 30 g/mL) of anti-CD47 antibodies (see Table 3 for chimeric antibodies, and see Table 4 for humanized antibodies) in blocking solution were added, and the plate was incubated at room temperature for 2 h. […] After the 96-well plate was washed, 100 μL/well of a substrate solution TMB (TIANGEN, Cat. No. PA107-01) was added, and the 96-well plate was incubated at room temperature for 10 min. 100 μL/well of a stop solution (1 M H₂SO₄) was added to stop the reaction. Colorimetric signals were generated and read at 450 nm using a multifunctional microplate reader (manufacturer: PerkinElmer; model: EnVision). Data were analyzed using GraphPad Prism5, and EC₅₀ was calculated.

EC50 [µg/mL] | Binder
0.127 | B1
0.0809 | B2
0.125 | B3
0.106 | B4
0.07 | B5
0.166 | B6
0.106 | B7
0.0993 | B8
0.115 | B9
0.0563 | B10
0.129 | B11
0.157 | B12
0.339 | B13
0.16 | B14
0.215 | B15
0.306 | B16

These binders were tested against T1, CD47 on the red cell surface (assay: cell-based or functional assay).

red cell agglutination, lowest concentration causing it [µg/mL] | Binder
3.3 | B1
3.3 | B6
3.3 | B9
3.3 | B14
3.3 | B15
3.3 | B16
